# Measurements from patent US7981997B2, “Growth factor which acts through ErbB-4 RTK” (Yeda Research And Development Co., priority 2000, dated 2011).
# B1: NRG-4: synthetic refolded mouse EGF-like domain of NRG-4 (residues 4 to 50, SEQ ID NO:2) (peptide, listed as Mus musculus)
# chain: MPTDHEQPCGPRHRSFCLNGGICYVIPTIPSPFCRCIENYTGARCEEVFLPSSSIPSESNLSAAFVVLAVLLTLTIAALCFLCRKGHLQRASSVQCEISLVETNNTRTRHSHREH
# Columns and labels:
# surface-expressed ErbB-4 = biological target: T1, surface-expressed ErbB-4 (Homo sapiens, UniProt Q15303); assay: Covalent crosslinking to CHO cells transfected with ErbB-4; format: binding; details: expression of ErbB-4 alone
# T1 construct: expressed in transfected cells; host or cells: CHO (Chinese Hamster Ovary) cells
# T1 sequence (Q15303 26-1308, species assumed): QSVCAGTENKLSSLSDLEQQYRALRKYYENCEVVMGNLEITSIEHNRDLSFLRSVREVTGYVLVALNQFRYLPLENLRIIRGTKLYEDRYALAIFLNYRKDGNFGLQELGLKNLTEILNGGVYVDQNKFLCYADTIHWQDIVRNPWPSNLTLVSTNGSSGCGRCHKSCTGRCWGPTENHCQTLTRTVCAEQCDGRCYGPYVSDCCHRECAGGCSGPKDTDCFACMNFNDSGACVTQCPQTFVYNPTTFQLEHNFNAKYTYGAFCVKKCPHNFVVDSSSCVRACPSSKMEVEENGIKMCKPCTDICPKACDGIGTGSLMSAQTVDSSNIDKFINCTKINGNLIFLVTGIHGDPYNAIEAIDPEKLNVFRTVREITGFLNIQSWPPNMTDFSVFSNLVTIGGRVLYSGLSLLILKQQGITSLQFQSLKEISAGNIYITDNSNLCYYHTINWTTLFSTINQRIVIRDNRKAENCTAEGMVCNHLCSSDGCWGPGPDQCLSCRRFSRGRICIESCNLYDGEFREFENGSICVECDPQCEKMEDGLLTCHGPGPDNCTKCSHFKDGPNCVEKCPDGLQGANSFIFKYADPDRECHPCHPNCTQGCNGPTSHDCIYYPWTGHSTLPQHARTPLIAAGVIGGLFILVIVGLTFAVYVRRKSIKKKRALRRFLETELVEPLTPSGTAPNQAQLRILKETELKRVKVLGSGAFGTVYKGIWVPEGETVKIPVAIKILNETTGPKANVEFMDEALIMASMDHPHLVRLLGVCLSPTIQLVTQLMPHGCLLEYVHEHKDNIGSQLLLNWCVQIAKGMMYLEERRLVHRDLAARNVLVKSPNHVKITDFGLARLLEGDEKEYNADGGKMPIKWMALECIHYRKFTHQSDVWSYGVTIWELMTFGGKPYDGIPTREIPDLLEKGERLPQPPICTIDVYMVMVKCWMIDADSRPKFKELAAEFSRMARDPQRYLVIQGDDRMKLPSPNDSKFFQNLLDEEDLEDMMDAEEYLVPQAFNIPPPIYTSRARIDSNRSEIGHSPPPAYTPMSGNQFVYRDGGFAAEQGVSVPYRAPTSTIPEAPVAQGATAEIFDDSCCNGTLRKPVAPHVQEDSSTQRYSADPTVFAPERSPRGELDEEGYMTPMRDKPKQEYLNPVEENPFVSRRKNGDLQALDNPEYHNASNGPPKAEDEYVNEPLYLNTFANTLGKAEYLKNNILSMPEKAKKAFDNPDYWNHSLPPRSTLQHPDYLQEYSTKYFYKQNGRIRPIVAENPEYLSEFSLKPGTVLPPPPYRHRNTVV
# Experimental: (§1) CHO cells were transfected with vectors directing expression of the indicated ErbB proteins or their combinations. Two days later cell monolayers were incubated with either ^125I-NRG-1β or ^125I-NRG-4 (EGF-like domains, each at 100 ng/ml). Following 2 hours at 4° C., the covalent crosslinking reagent bis(sulfosuccinimdyl)-suberate (BS^3) was added (1 mM final concentration) and cell extracts prepared after an additional 45 minutes of incubation. The indicated ErbB proteins were then immunoprecipitated with mouse monoclonal antibodies, and the complexes resolved by gel electrophoresis and autoradiography. Arrows mark the locations of monomeric (M) and dimeric (D) receptor complexes.
# (§2) Growth factors were labeled with Iodogen (Pierce) as described (Karunagaran et al., 1995). Chemical crosslinking to Chinese Hamster Ovary (CHO) cells engineered to express different ErbB combinations have been performed essentially as described (Tzahar et al., 1996). Briefly, radiolabeled ligands (at 100 ng/ml) were incubated for 2 hours with cell monolayers at 4 C. […] Non-specific binding was determined in the presence of a 100-fold molar excess of the unlabeled ligani. Cells were then washed, lysed in a solution containing 0.1 M NaOH and 0.1% SDS, and radioactivity determined by use of a gamma counter. […]
# [1] = biological target: T2, ErbB-4 co-expressed with ErbB-2 (Homo sapiens, UniProt Q15303); assay: Covalent crosslinking to CHO cells co-transfected with ErbB-4 and ErbB-2; format: binding; details: precipitation with anti-ErbB-2 antibodies
# T2 construct: expressed in transfected cells; host or cells: CHO (Chinese Hamster Ovary) cells, transient co-transfection
# Experimental: as §1, §2
# [2] = biological target: T3, ErbB-4 co-expressed with ErbB-3 (Homo sapiens, UniProt Q15303); assay: Covalent crosslinking to CHO cells co-transfected with ErbB-4 and ErbB-3; format: binding
# T3 construct: expressed in transfected cells; host or cells: CHO (Chinese Hamster Ovary) cells, transient co-transfection
# T3 sequence (Q15303 26-1308): as the sequence (Q15303 26-1308, species assumed) above
# Experimental: as §1, §2
# [3] = test system: 180-kDa ErbB receptors and MAP-kinase (Erk-1 and Erk-2) in D24 cells; assay: Tyrosine phosphorylation and MAPK activation, immunoblotting; format: cell-based; details: 100 ng/ml, five minutes
# Experimental: (§3) Derivatives of 32D cells expressing ErbB-4, either alone (D4 cells) or in combination with ErbB-2 (D24 cells) were incubated for 5 minutes at 37° C. with either NRG-4 or NRG-1β (each at 100 ng/ml). Whole cell extracts were then prepared, resolved by gel electrophoresis, and transferred to a nitrocellulose filter. The upper portion of the filter was immunoblotted with antibodies to phosphotyrosine (P-Tyr, the 150-200 kDa region is shown) or an antibody directed at the activated doubly phosphorylated form of the MAPK (Erk1 and Erk2, the 40-50 kDa region is shown). Antibodies were incubated with a secondary reagent coupled to horseradish peroxidase, allowing subsequent detection by chemiluminescence.
# (§4) For receptor activation studies, derivatives of the 32D cell line were resuspended in phosphate-buffered solution (PBS) and incubated at 22 C for 15 minutes before adding growth factors and incubating for five minutes at 37 C. Cells were then pelleted and lysed in ice cold solubilization buffer [50 mM Tris-HCl pH 7.5, 150 mM NaCl, 1% Nonidet-P40, 0.5% Na-deoxycholate, 0.1% sodium dodecyl sulfate (SDS), 1.5 mM EDTA, 1.5 mM MgCl2, 2 mM Na-orthovanadate, 1 mM phenylmethylsulfonyl fluoride (PMSF), 10 µg/ml aprotinin and 10 µg/ml leupeptin] and left on ice for 15 minutes. The whole cell extract was then cleared by centrifugation (12,000×g for 10 minutes at 4 C), immediately boiled in reducing gel sample buffer, and resolved by 10% SDS PAGE before being transferred onto nitrocellulose. Filters were blocked in TBST buffer (0.02 M Tris-HCl pH 7.5, 0.15 M NaCl, 0.05% Tween-20) containing 1% milk for 40 minutes at 22 C, blotted with primary antibodies in TBST overnight at 4 C, followed by conjugation with a secondary antibody linked to horseradish peroxidase and subsequent detection by chemiluminescence (Amersham Corp.).
# (§5) Evidently, NRG-4 binds to ErbB-4 and mediates cell proliferation through activation of this receptor. Because other ErbB ligands stimulate cell growth via tyrosine phosphorylation of their respective receptors and activation of the intervening mitogen-activated protein kinase (MAPK) cascade, these two signaling steps were tested in NRG-4-responsive myeloid cells expressing ErbB-4 (D4 and D24 cell lines). Cells were stimulated with 100 ng/ml of activating ligand for five minutes, followed by lysis and analysis by immunoblotting.
# [4] = test system: 180-kDa ErbB receptors and MAP-kinase (Erk-1 and Erk-2) in D4 cells; assay: as above; format: cell-based; details: 100 ng/ml, five minutes
# Experimental: as §3, §4, §5
# D1 cells = assay: as above; format: cell-based; details: doses as high as 1 μg/ml
# Experimental: as §4, §5
# D12 cells = assay: as above; format: cell-based; details: doses as high as 1 μg/ml
# Experimental: as §4, §5
# D13 cells = assay: as above; format: cell-based; details: doses as high as 1 μg/ml
# Experimental: as §4, §5
# D2 cells = assay: as above; format: cell-based; details: doses as high as 1 μg/ml
# Experimental: as §4, §5
# D23 cells = assay: as above; format: cell-based; details: doses as high as 1 μg/ml
# Experimental: as §4, §5
# D3 cells = assay: as above; format: cell-based; details: doses as high as 1 μg/ml
# Experimental: as §4, §5
molecule,measurement,setting,value
B1,covalent crosslinking signal compared with radioactive NRG-1,surface-expressed ErbB-4,weaker than that observed with a radioactive NRG-1
same,complex formation with ErbB-4 on CHO cells,surface-expressed ErbB-4; 125I-ligand 100 ng/ml,ability to form complexes
same,heterodimers of ErbB-4 with ErbB-2,[1],existence of NRG-4-promoted heterodimers
same,effect of ErbB-3 co-expression on the radioactive signal,"[2]; CHO cells, ErbB-4 + ErbB-3",did not significantly affect the radioactive signals
same,heterodimerization of ErbB-3 with ErbB-4,[2]; following ligand binding,largely escaped heterodimerization
same,"activation of MAP-kinase (Erk-1 and Erk-2), D24 cells",[3],accompanying activation of MAP-kinase
same,"phosphorylation of the 180-kDa ErbB receptors, D24 cells",[3],stimulated phosphorylation
same,"activation of MAP-kinase (Erk-1 and Erk-2), D4 cells",[4],accompanying activation of MAP-kinase
same,"phosphorylation of the 180-kDa ErbB receptors, D4 cells",[4],stimulated phosphorylation
same,stimulation of D1 cells,D1 cells,did not stimulate
same,stimulation of D12 cells,D12 cells,did not stimulate
same,stimulation of D13 cells,D13 cells,did not stimulate
same,stimulation of D2 cells,D2 cells,did not stimulate
same,stimulation of D23 cells,D23 cells,did not stimulate
same,stimulation of D3 cells,D3 cells,did not stimulate
